# B1: TPR t1 (parent)
# chain: GACCAAUCUGCCCUCAGAGCUCGAGAACAUCUUCGGAUGCAGAGGAGGCAGGCUUCGGUGGCGCGAUAGCGCCAACGUCCUCAACCUCCAAUGCAUCCCACCACAUGAUGAUGCCUGAAGAGCCUUGGUUUUUUG
# Variants of: B1
# Assay: polymerase ribozyme fitness, log enrichment relative to wild type (log ratio); higher = more active; in vitro selection for triplet polymerase activity
# In short: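 Input and output libraries were sequenced on Illumina after a single in vitro selection round, run in triplicate on PCR-built, transcribed mutant libraries of each subunit of a heterodimeric triplet polymerase ribozyme. Selection annealed libraries to a biotinylated primer, the partner subunit and triplets, incubated them frozen at −7 °C, then gel-excised extended constructs for streptavidin-bead capture and RT-PCR. Genotypes with ≥10 input reads and ≥1 read per output were kept. Fitness is the logarithm, taken in base 2, of genotype enrichment divided by wild-type enrichment, using inverse-variance-weighted replicate averages.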
row,Variant,polymerase ribozyme fitness (log ratio)
1,GACCAAUCUGCCCUCAGAGCUCGAGAACAUCUUCGGAUGCAGAGGAGGCAGGCUUCGGUGACGCGAUAGCGCCAACGUCCUCAACCUCCAAUGCAGCCCACCACAUGAUGAUGCCUGAAGAGCCUUGGUCUUUUG,-0.371
2,GACCAAUCUGCCCUCAGAGCUCGAGAACAUCUUCGGAUGCAGAGGAGGCAGGCUUCGGUGACGCGAUAGCGCCAACGACCUCAACCUCCAAUGCAUCCCACCACAUGAUGAUGCCUGAAGAGCCUGGGUUUUUUG,-2.02
3,GACCAAUCUGCCCUCAGAGCUCGAGAACAUCUUCGGAUGCAGAGGAGGCAGGCUUCGGUGACGCGAUAGCGCCAACGUCCUCAACCACCAAUGCAUCCCACCACAUGAUGAUGCCUGAAGAGCAUUGGUUUUUUG,1.93
4,GACCAAUCUGCCCUCAGAGCUCGAGAACAUCUUCGGAUGCAGAGGAGGCAGGCUUCGGUGACGCGAUAGCGCCAACGACCUCAACCUCCAAUGCAUCCCACCACAUGAUGAUGCCUGAAGAGCCUUGGUUUUUUG,-0.223
5,GACCAAUCUGCCCUCAGAGCUCGAGAACAUCUUCGGAUGCAGAGGAGGCAGGCUUCGGUGACGCGAUAGCGCCAACGGCCUCAACCUCCAAUGCAUCCCACCACAUGAUGAUGCCUGAAGAGCCUUGGUUUUUUG,-0.87
6,GACCAAUCUGCCCUCAGAGCUCGAGAACAUCUUCGGAUGCAGAGGAGGCAGGCUUCGGUGACGCGAUAGCGCCAACGUCCUCAACCUCCAAUGCAUCCCACCACAUGAUGAUGCCUGAAGAGCCUUGGAUUUUUG,-1.11
7,GACCAAUCUGCCCUCAGAGCUCGAGAACAUCUUCGGAUGCAGAGGAGGCAGGCUUCGGUGACGCGAUAGCGCCAACGUCCUCAACCUCCAAUGCAUCCCACCACAUGAUGAUGCCUGAAGAGCCUUGGGUUUUUG,-1.24
8,GACCAAUCUGCCCUCAGAGCUCGAGAACAUCUUCGGAUGCAGAGGAGGCAGGCUUCGGUGACGCGAUAGCGCCAACGUCCAAAACCUCCAAUGCAUCUCACCACAUGAUGAUGCCUGAAGAGCCUUGGUUUUUUG,-1.55
9,GACCAAUCUGCCCUCAGAGCUCGAGAACAUCUUCGGAUGCAGAGGAGGCAGGCUUCGGUGACGCGAUAGCGCCAACGCCUUCAACCUCCAAUGCAUCCCACCACAUGAUGAUGCCUGAAGAGCCUUGGUUUUUUG,-5.11
10,GACCAAUCUGCCCUCAGAGCUCGAGAACAUCUUCGGAUGCAGAGGAGGCAGGCUUCGGUGACGCGAUAGCGCCAACGUCCUCAACCUCCAAUGCAUCCCACCACAUGAUGAUGCCUGAAGAGCCUUGAUUUUUUG,-1.69
11,GACCAAUCUGCCCUCAGAGCUCGAGAACAUCUUCGGAUGCAGAGGAGGCAGGCUUCGGUGACGCGAUAGCGCCAACGUCCGCAACCUCCAAUGCAUCCCACCACAUGAUGAUGCCGGAAGAGCAUUGGUUUUUUG,-2.39
12,GACCAAUCUGCCCUCAGAGCUCGAGAACAUCUUCGGAUGCAGAGGAGGCAGGCUUCGGUGACGCGAUAGCGCCAACGUCCUCAACCCCCAAUGCAUCCCACCACAUGAUGAUGCCUGAAGAGCCUGGGUUUUUUG,-1.59
13,GACCAAUCUGCCCUCAGAGCUCGAGAACAUCUUCGGAUGCAGAGGAGGCAGGCUUCGGUGACGCGAUAGCGCCAACGUCCUCAACCUCCAAUGCAUCCCACCACAUGAUGAUGCCUGAAGAGCCUUUGUUUUUCG,-0.718
14,GACCAAUCUGCCCUCAGAGCUCGAGAACAUCUUCGGAUGCAGAGGAGGCAGGCUUCGGUGACGCGAUAGCGCCAACGUCCUCAACCUCCAAUGCAUCCCACCACAUGAUGAUGCCUCAAGAGCCUUGGUUUUUUG,-2.99
15,GACCAAUCUGCCCUCAGAGCUCGAGAACAUCUUCGGAUGCAGAGGAGGCAGGCUUCGGUGACGCGAUAGCGCCAACGUCCUCAACCUCCAAUGCAUCCCACCACAUGAUGAUGCCUAAAGAGCCUUGGUUUUUUG,-0.803
16,GACCAAUCUGCCCUCAGAGCUCGAGAACAUCUUCGGAUGCAGAGGAGGCAGGCUUCGGUGACGCGAUAGCGCCAACGUCCUCAACCUCCAAUACAUCCCACCAUAUGAUGAUGCCUGAAGAGCCUUGGUUUUUUG,0.015
17,GACCAAUCUGCCCUCAGAGCUCGAGAACAUCUUCGGAUGCAGAGGAGGCAGGCUUCGGUGACGCGAUAGCGCCAACGCCCUCAACCUGCAAUGCAUCCCACCACAUGAUGAUGCCUGAAGAGCCUUGGUUUUUUG,-0.472
18,GACCAAUCUGCCCUCAGAGCUCGAGAACAUCUUCGGAUGCAGAGGAGGCAGGCUUCGGUGACGCGAUAGCGCCAACGUCCUCAACCUCCAAUCCAUACCACCAAAUGAUGAUGCCUGAAGAGCCUUGGUUUUUUG,-6.04
19,GACCAAUCUGCCCUCAGAGCUCGAGAACAUCUUCGGAUGCAGAGGAGGCAGGCUUCGGUGACGCGAUAGCGCCAACGUCCUCAACCUCCAAUUCAUCCCACCACAUGAUGGUGCCUGAAGAGCCUUGGUUUUUUG,0.181
20,GACCAAUCUGCCCUCAGAGCUCGAGAACAUCUUCGGAUGCAGAGGAGGCAGGCUUCGGUGACGCGAUAGCGCCAACGUCCUCAACCUCCAAUGCAUCCCACCACAUGAUGAUGCCUGAAUAGCCUUGGUUUUUUU,-0.818
21,GACCAAUCUGCCCUCAGAGCUCGAGAACAUCUUCGGAUGCAGAGGAGGCAGGCUUCGGUGACGCGAUAGCGCCAACGUCCUCAACCUCCAACGCAUCCCACCACAUGAUGAUGACUGAAGAGCCUUGGUUUUUUG,-2.51
